Consider one molecule from publication PMC3064491 (Nature, 2011).

In this test the target is T1, human OGT construct (hOGT4.5) containing 4.5 TPR units and the catalytic domain (human, UniProt O15294-3 313-1031).
T1 sequence (looked up): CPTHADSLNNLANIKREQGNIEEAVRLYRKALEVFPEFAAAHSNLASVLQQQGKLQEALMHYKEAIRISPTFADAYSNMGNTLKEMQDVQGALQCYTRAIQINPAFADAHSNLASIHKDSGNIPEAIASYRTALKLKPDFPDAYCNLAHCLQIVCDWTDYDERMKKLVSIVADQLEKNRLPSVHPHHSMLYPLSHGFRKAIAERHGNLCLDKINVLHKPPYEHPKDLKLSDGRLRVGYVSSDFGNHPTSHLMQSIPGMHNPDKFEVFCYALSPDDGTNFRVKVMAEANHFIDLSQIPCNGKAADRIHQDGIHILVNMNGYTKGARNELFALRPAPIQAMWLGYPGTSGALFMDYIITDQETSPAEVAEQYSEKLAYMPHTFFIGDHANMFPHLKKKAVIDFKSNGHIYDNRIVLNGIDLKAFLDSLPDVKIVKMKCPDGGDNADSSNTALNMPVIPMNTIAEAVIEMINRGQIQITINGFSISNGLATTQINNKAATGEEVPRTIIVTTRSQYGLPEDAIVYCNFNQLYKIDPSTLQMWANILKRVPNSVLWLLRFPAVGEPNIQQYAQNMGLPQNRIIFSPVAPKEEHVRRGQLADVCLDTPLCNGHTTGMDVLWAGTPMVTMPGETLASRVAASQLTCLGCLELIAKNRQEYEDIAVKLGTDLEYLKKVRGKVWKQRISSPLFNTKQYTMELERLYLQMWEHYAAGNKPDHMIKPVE
The test is described as follows: crystal structure.

B1: 14 residue-CKII peptide substrate (peptide)
peptide: YPGGSTPVSSANMM
On to B1, for which the binding result is “binds”.
